Measurements published in patent US20140275493A1 (Bayer, published 2014).

Molecular target: T1, Human TFPI (tissue factor pathway inhibitor) (human, UniProt P10646 29-304, limits assumed)
T1 construct: Coated on Maxisorb plates for the ELISA
T1 sequence (looked up): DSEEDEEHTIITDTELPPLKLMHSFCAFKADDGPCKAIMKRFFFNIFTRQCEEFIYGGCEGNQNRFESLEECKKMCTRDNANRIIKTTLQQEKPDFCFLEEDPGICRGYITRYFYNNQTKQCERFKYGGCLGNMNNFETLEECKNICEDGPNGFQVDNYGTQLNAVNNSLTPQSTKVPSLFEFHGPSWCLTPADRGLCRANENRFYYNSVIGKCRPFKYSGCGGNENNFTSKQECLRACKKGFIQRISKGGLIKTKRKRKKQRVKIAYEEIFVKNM
Assay: pH 6.0 TFPI dissociation ELISA, ratio of signals
Description: Human TFPI, 1 μg/ml, was used to coat Maxisorb™ microtiter plates. Expression media, 100 μl, from each member of the His scan library, was added to two wells on the plate, in a pair wise fashion. The plate was incubated on a shaker at room temperature for 1 hr. The plate was washed 3× with PBST. PBS (pH 7.0) was added to one well of the pair, 100 mM pH6.0 Citrate buffer was added to the second well of the same pair. The plate was incubated at 37° C. with shaking for one hr. The plate was washed 3× with PBST and developed using amplex red. A pH 7.0/pH 6.0 ratio was established to rank the sensitive muteins. The ratio for wild type 2A8-g200 Fab was 1.0.

Ratio pH 7.0/pH 6.0: 6.64
B1: 2A8-g200 Fab VL-Y31H (Fab, V domains shown)
VH: EVQLVESGGGLVQPGGSLRLSCAASGFTFSSYGMDWVRQAPGKGLEWVSSIRGSRGSTYYADSVKGRFTISRDNSKNTLYLQMNSLRAEDTAVYYCARLYRYWFDYWGQGTLVTVSS
VL: SYELTQPPSVSVSPGQTARITCSGDNLPKYHAHWYQQKPGQAPVVVIFYDVNRPSGIPERFSGSNSGNTATLTISGTQAMDEADYYCQAWWSSTPVFGGGTKLTVLG
